In patent US20250074971A1:

Legend:
[1] = target: Senecavirus A (SVA) particles (Senecavirus A); assay: ELISA, coated SVA, Fc control
[2] = target: Foot-and-Mouth Disease Virus (FMDV) particles (Foot-and-Mouth Disease Virus); assay: ELISA, coated FMDV, Fc control

Fc
A450 [1]: 0.218 A450
A450 [2]: 0.054 A450
